We go through six molecules from patent publication US20230212587A1, “Mutant Hydroxyphenylpyruvate Dioxygenase Polypeptide, Encoding Gene Thereof and Use Therefor” (Beijing Dabeinong Biotechnology Co., Ltd., priority 2019, published 2023).

Numbering of substitutions follows the chain as printed. Numbers in names are those of the source.

This assay deals with Arabidopsis thaliana T1 plants. Briefly: Topramezone tolerance of transgenic Arabidopsis thaliana T1 plants (pesticide damage grade by bleached leaf area, score, resistance evaluation). The assay is classed as in vivo. The note with it: HPPDs from different species, 7 DAT; for Classification and statistics of pesticide damage grade Grade 0 / Classification and statistics of pesticide damage grade Grade 1 / Classification and statistics of pesticide damage grade Grade 2 / Classification and statistics of pesticide damage grade Grade 3: number of plants (of 16) in this grade; for Scores: score for pesticide damage 0-100. Put shortly:
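Herbicide tolerance was judged per plant on a bleaching scale (grade 0 no bleaching to grade 3 fully bleached) 7 DAT. Topramezone doses were 0, 25, 50 and 100 g ai/ha on 18-day-old T1 and wild-type plants.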

B1: N4HPPDm-F372A-02: Burkholderia sp. N4 HPPD mutant F372A, SEQ ID NO: 168 (protein)
chain: MQIPNWENPVGTDGFEFIEYTAPDPKALGQLFERMGFTAIARHRHKDVTVYRQGDINFIINAEPDSFAQRFARLHGPSICAIAFRVQDAAKAYQHALELGAWGFDNKTGPMELNIPAIKGIGDSLIYFVDRWRGKNGAQPGAIGDISIYDVDFEPIAGATPNPAGHGLTYIDHLTHNVHRGRMQEWAEFYERLFNFREVRYFDIEGKVTGVKSKAMTSPCGKIRIPINEEGSDTAGQIQEYLDAYHGEGIQHIALGTSDIYGAVDGLRGKEVKLLDTIDTYYELVDRRVPDHGESLDELKKRKILIDGARDDLLLQIATENQIGPIFFEIIQRKGNQGFGEGTFKALFESIELDQIRRGVVQDKA
modifications: N4HPPDm-F372A Amino Acid Sequence
For the molecule B1, under “topramezone 25 g ai/ha (1x)”, the “Classification and statistics of pesticide damage grade Grade 0” value stood at 16; the “Classification and statistics of pesticide damage grade Grade 1” value worked out at 0; the “Classification and statistics of pesticide damage grade Grade 2” value was found to be 0; the “Classification and statistics of pesticide damage grade Grade 3” value turned out to be 0. For the same molecule, where the note is “topramezone 25 g ai/ha (1x)”, the Scores turned out to be 0 and the Resistance evaluation result is listed as “highly resistant (highly resistant plants (scores 0-15))”. For the same molecule, for the setting “topramezone 100 g ai/ha (4x)”, the “Classification and statistics of pesticide damage grade Grade 0” value is listed as 12; the “Classification and statistics of pesticide damage grade Grade 1” value was 4; the “Classification and statistics of pesticide damage grade Grade 2” value was 0; the “Classification and statistics of pesticide damage grade Grade 3” value is 0. Under “topramezone 100 g ai/ha (4x)”, the Scores is 8 and the Resistance evaluation result is listed as “highly resistant (highly resistant plants (scores 0-15))”.

B2: BdHPPD-02: native Brachypodium distachyon HPPD, SEQ ID NO: 45 (protein)
chain: MPPPATTAAPAAAAVTPEHARPPRRVARVNPRSDRFSALSFHHVELWCADAASAAGRFSFALGAPPAARSDLSTGNSAHASILLRSGSLAFLFTAPYAPSPASDSAASIPSFSASAARQFTADHGGLAVRAVALRVSSASDAFHASVSAGARPSFPPADLGQGFALAEVELYGDVVLRFISHPDENTEIPFLPGFESVSNPGASTYGLTRFDHVVGNVPSLAPVAAYIAGFTGFHEFAEFTAEDVGTADSGLNSVVLANNSERVLLPLNEPVHGTKRRSQIQTYLDHHGGPGVQHIALASDDVLRTLREMRARSAMGGFEFLAPPPPNYYDGVRRRAGDVLSEAQIKECQELGVLVDRDDQGVLLQIFTKPVGDRPTLFLEMIQRIGCMEKDEIGQEQQKGGCGGFGKGNFSELFRSIEEYEKSLEAKQSAVVQES
modifications: Brachypodium distachyon; BdHPPD Amino Acid Sequence
For B2, for the setting “topramezone 25 g ai/ha (1x)”, the “Classification and statistics of pesticide damage grade Grade 0” value is listed as 0; the “Classification and statistics of pesticide damage grade Grade 1” value amounted to 0; the “Classification and statistics of pesticide damage grade Grade 2” value is 0; the “Classification and statistics of pesticide damage grade Grade 3” value was determined as 16. Moreover, for the setting “topramezone 25 g ai/ha (1x)”, the Scores was determined as 100 and the Resistance evaluation result was “non-resistant (non-resistant plants (scores 68-100))”. For the setting “topramezone 100 g ai/ha (4x)”, the “Classification and statistics of pesticide damage grade Grade 0” value is listed as 0; the “Classification and statistics of pesticide damage grade Grade 1” value is recorded as 0; the “Classification and statistics of pesticide damage grade Grade 2” value was found to be 0; the “Classification and statistics of pesticide damage grade Grade 3” value is recorded as 16. Besides, where the note is “topramezone 100 g ai/ha (4x)”, the Scores is given as 100 and the Resistance evaluation entry is “non-resistant (non-resistant plants (scores 68-100))”.

B3: BdHPPDm-F372A-02: Brachypodium distachyon HPPD mutant F372A, SEQ ID NO: 48 (protein)
chain: B2 chain with F368A
modifications: BdHPPDm-F372A Amino Acid Sequence
As to B3, where the note is “topramezone 25 g ai/ha (1x)”, the “Classification and statistics of pesticide damage grade Grade 0” value came out at 16; the “Classification and statistics of pesticide damage grade Grade 1” value was found to be 0; the “Classification and statistics of pesticide damage grade Grade 2” value was 0; the “Classification and statistics of pesticide damage grade Grade 3” value worked out at 0. For the setting “topramezone 25 g ai/ha (1x)”, the Scores was 0 and the Resistance evaluation result is recorded as “highly resistant (highly resistant plants (scores 0-15))”. In addition, for the setting “topramezone 100 g ai/ha (4x)”, the “Classification and statistics of pesticide damage grade Grade 0” value came out at 6; the “Classification and statistics of pesticide damage grade Grade 1” value turned out to be 10; the “Classification and statistics of pesticide damage grade Grade 2” value is 0; the “Classification and statistics of pesticide damage grade Grade 3” value is reported as 0. In addition, for the setting “topramezone 100 g ai/ha (4x)”, the Scores amounted to 21 and the Resistance evaluation result is reported as “moderately resistant (moderately resistant plants (scores 16-33))”.

B4: TaHPPDm-F372A-02: Triticum aestivum HPPD mutant F372A, SEQ ID NO: 42 (protein)
chain: MPPTPTTPAATGAGAAAAVTPEHARPRRMVRFNPRSDRFHTLSFHHVEFWCADAASAAGRFAFALGAPLAARSDLSTGNSVHASQLLRSGNLAFLFTAPYANGCDAATASLPSFSADAARRFSADHGLAVRSIALRVADAAEAFRASVDGGARPAFSPVDLGRGFGFAEVELYGDVVLRFVSHPDGTDVPFLPGFEGVSNPGAVDYGLTRFDHVVGNVPELASAAAYVAGFTGFHEFAEFTTEDVGTAESGLNSMVLANNSEGVLLPLNEPVHGTKRRSQIQTFLEHHGGPGVQHIAVASSDVLRTLREMRARSAMGGFDFLPPPLPKYYEGVRRIAGDVLSEAQIKECQELGVLVDRDDQGVLLQIATKPVGDRPTLFLEMIQRIGCMEKDERGEEYQKGGCGGFGKGNFSELFKSIEDYEKSLEAKQSAAVQGS
modifications: TaHPPDm-F372A Amino Acid Sequence
For the molecule B4, under “topramezone 25 g ai/ha (1x)”, the “Classification and statistics of pesticide damage grade Grade 0” value is reported as 16; the “Classification and statistics of pesticide damage grade Grade 1” value stood at 0; the “Classification and statistics of pesticide damage grade Grade 2” value came out at 0; the “Classification and statistics of pesticide damage grade Grade 3” value stood at 0. Also, where the note is “topramezone 25 g ai/ha (1x)”, the Scores was 0 and the Resistance evaluation entry is reported as “highly resistant (highly resistant plants (scores 0-15))”. Moreover, where the note is “topramezone 100 g ai/ha (4x)”, the “Classification and statistics of pesticide damage grade Grade 0” value is given as 15; the “Classification and statistics of pesticide damage grade Grade 1” value turned out to be 1; the “Classification and statistics of pesticide damage grade Grade 2” value was found to be 0; the “Classification and statistics of pesticide damage grade Grade 3” value turned out to be 0. In addition, where the note is “topramezone 100 g ai/ha (4x)”, the Scores came to 2 and the Resistance evaluation entry is given as “highly resistant (highly resistant plants (scores 0-15))”.

B5: N5HPPD-02: native Sphingobium sp. N5 HPPD, SEQ ID NO: 171 (protein)
chain: MAADSENPLGLHGFAFAEFTSPDPAAMARQFEQLGFVPAARRKDRGLTLYRQGRIAFILNAGEGEQASAFRAAHGPSANGMAFNVADAKAAHRHAIQSGATDADTAQSALPGTYAIEGIGDSLLYLVDSDPFADWDEVPGWREASAERGVGLDLLDHLTHNVRRGQMRVWSEFYATLFGFEEQKFFDIKGQATGLFSQAMIAPDHEIRIPLNESQDDNSQIEEFIREYNGEGIQHLALTTPDIYSTVEKLRANGVRLQDTIDTYYDLVDERVPGHGEDLARLRKNRILIDGDVHDEGLLLQIFTETMFGPIFFEIIQRKGNEGFGNGNFQVLFESIELDQIRRGVVTVDA
modifications: N5HPPD Amino Acid Sequence (Burkholderia)
As for B5, for the setting “topramezone 25 g ai/ha (1x)”, the “Classification and statistics of pesticide damage grade Grade 0” value is 6; the “Classification and statistics of pesticide damage grade Grade 1” value amounted to 6; the “Classification and statistics of pesticide damage grade Grade 2” value worked out at 4; the “Classification and statistics of pesticide damage grade Grade 3” value stood at 0. Also, where the note is “topramezone 25 g ai/ha (1x)”, the Scores was 21 and the Resistance evaluation result was “moderately resistant (moderately resistant plants (scores 16-33))”. In addition, for the setting “topramezone 100 g ai/ha (4x)”, the “Classification and statistics of pesticide damage grade Grade 0” value was 0; the “Classification and statistics of pesticide damage grade Grade 1” value was found to be 7; the “Classification and statistics of pesticide damage grade Grade 2” value worked out at 5; the “Classification and statistics of pesticide damage grade Grade 3” value was determined as 4. Under “topramezone 100 g ai/ha (4x)”, the Scores is listed as 60 and the Resistance evaluation entry was “poorly resistant (poorly resistant plants (scores 34-67))”.

B6: N5HPPDm-F372A-02: Sphingobium sp. N5 HPPD mutant F372A, SEQ ID NO: 174 (protein)
chain: B5 chain with F303A
modifications: N5HPPDm-F372A Amino Acid Sequence
Turning to B6, for the setting “topramezone 25 g ai/ha (1x)”, the “Classification and statistics of pesticide damage grade Grade 0” value was 16; the “Classification and statistics of pesticide damage grade Grade 1” value came to 0; the “Classification and statistics of pesticide damage grade Grade 2” value was determined as 0; the “Classification and statistics of pesticide damage grade Grade 3” value was determined as 0. Besides, for the setting “topramezone 25 g ai/ha (1x)”, the Scores came out at 0 and the Resistance evaluation result was “highly resistant (highly resistant plants (scores 0-15))”. Where the note is “topramezone 100 g ai/ha (4x)”, the “Classification and statistics of pesticide damage grade Grade 0” value came to 13; the “Classification and statistics of pesticide damage grade Grade 1” value is listed as 3; the “Classification and statistics of pesticide damage grade Grade 2” value was 0; the “Classification and statistics of pesticide damage grade Grade 3” value came out at 0. Besides, where the note is “topramezone 100 g ai/ha (4x)”, the Scores is recorded as 6 and the Resistance evaluation result is listed as “highly resistant (highly resistant plants (scores 0-15))”.
